Source: US20250011363A1, “OPTIMIZED SHORTENED PEPTIDE THAT BINDS TO ACETYLCHOLINE RECEPTOR, AND USE THEREOF” (SKINMED CO., LTD., priority 2021, published 2025)

B1: 5mer-1073 (peptide)
peptide: RDEAK
B2: 5mer-774 (peptide)
peptide: RTCDR
B3: 5mer-775 (peptide)
peptide: RHTVK
B4: 5mer-1072 (peptide)
peptide: KDWPK
B5: 5mer-773 (peptide)
peptide: RPNMR
B6: 5mer-1074 (peptide)
peptide: RPCPR
B7: 6mer-1-966 (peptide)
peptide: RRNSWK
B8: 6mer-1-999 (peptide)
peptide: RKATNR
B9: 6mer-1-996 (peptide)
peptide: RRPPWK
B10: 6mer-1-948 (peptide)
peptide: RKFTVR
B11: 6mer-1-967 (peptide)
peptide: RRTEDR
B12: 6mer-1-988 (peptide)
peptide: KRYPDR
B13: 6mer-1-987 (peptide)
peptide: RRTEFK
B14: 6mer-1-957 (peptide)
peptide: KKPPDK
B15: 6mer-1-977 (peptide)
peptide: RRPCFR
B16: 6mer-1-983 (peptide)
peptide: KRPHKK
B17: 6mer-1-934 (peptide)
peptide: KRPPGK
B18: 6mer-1-975 (peptide)
peptide: RKASIK
B19: 6mer-1-972 (peptide)
peptide: RRHTHK
B20: 6mer-1-939 (peptide)
peptide: KRNDFK
B21: 6mer-1-949 (peptide)
peptide: RKEMPR
B22: 6mer-1-940 (peptide)
peptide: RKPEDR
B23: 6mer-1-963 (peptide)
peptide: RREEDK
B24: 6mer-1-997 (peptide)
peptide: KKPTFR
B25: 6mer-1-959 (peptide)
peptide: KKIWFR
B26: 6mer-1-965 (peptide)
peptide: KRIWDK
B27: 6mer-1-978 (peptide)
peptide: RRKSHK
B28: 6mer-1-1000 (peptide)
peptide: RKMSHR
B29: 6mer-1-968 (peptide)
peptide: RREDFR
B30: 6mer-1-946 (peptide)
peptide: RRCEPR
B31: 6mer-1-984 (peptide)
peptide: KKESDK
B32: 6mer-1-947 (peptide)
peptide: KRTKGR
B33: 6mer-1-955 (peptide)
peptide: RKECFK
B34: 6mer-1-936 (peptide)
peptide: RKETDR
B35: 6mer-1-935 (peptide)
peptide: RKKDIK
B36: 6mer-1-938 (peptide)
peptide: KKIAWK
B37: 6mer-1-962 (peptide)
peptide: KKNCDK
B38: 6mer-1-994 (peptide)
peptide: KKHEFR
B39: 6mer-1-981 (peptide)
peptide: RKDDKK
B40: 6mer-1-937 (peptide)
peptide: RKPTNR
B41: 6mer-1-942 (peptide)
peptide: RRMMVR
B42: 6mer-1-973 (peptide)
peptide: RRDHVK
B43: 6mer-1-956 (peptide)
peptide: KRKSNK
B44: 6mer-1-989 (peptide)
peptide: KRATVR
B45: 6mer-1-991 (peptide)
peptide: RKAHDK
B46: 6mer-1-985 (peptide)
peptide: KRKSER
B47: 6mer-1-992 (peptide)
peptide: RRCTAK
B48: 6mer-1-993 (peptide)
peptide: KRAHDK
B49: 6mer-1-960 (peptide)
peptide: KKCPFR
B50: 6mer-1-950 (peptide)
peptide: RKEDKR
B51: 6mer-1-964 (peptide)
peptide: RKFKNK
B52: 6mer-1-961 (peptide)
peptide: RRTWAR
B53: 6mer-1-943 (peptide)
peptide: KKEHDK
B54: 6mer-1-980 (peptide)
peptide: RKICAK
B55: 6mer-1-986 (peptide)
peptide: KKAEEK
B56: 6mer-1-995 (peptide)
peptide: KRCHHR
B57: 6mer-1-969 (peptide)
peptide: RKDHWR
B58: 6mer-1-979 (peptide)
peptide: RRYWEK
B59: 6mer-1-954 (peptide)
peptide: KKAKGR
B60: 6mer-1-951 (peptide)
peptide: RKAMDK
B61: 6mer-1-1004 (peptide)
peptide: RKHSHR
B62: 6mer-1-970 (peptide)
peptide: RRCCAR
B63: 6mer-1-1002 (peptide)
peptide: KRIHMK
B64: 6mer-1-976 (peptide)
peptide: RKEMIK
B65: 6mer-1-998 (peptide)
peptide: KRNPVK
B66: 6mer-1-945 (peptide)
peptide: RKTSIK
B67: 6mer-1-932 (peptide)
peptide: KRFEFK
B68: 6mer-1-974 (peptide)
peptide: RKPAHK
B69: 6mer-1-982 (peptide)
peptide: KRCPDR
B70: 6mer-1-990 (peptide)
peptide: RRFTER
B71: 6mer-1-953 (peptide)
peptide: KRTNGK
B72: 6mer-1-958 (peptide)
peptide: KRYAGR
B73: 6mer-1-941 (peptide)
peptide: RKTPKK
B74: 6mer-1-1003 (peptide)
peptide: RKYCHR
B75: 6mer-1-944 (peptide)
peptide: RKPAGK
B76: 6mer-1-933 (peptide)
peptide: RRPWNR
B77: 6mer-1-971 (peptide)
peptide: RKIEMK
B78: 6mer-1-952 (peptide)
peptide: KRHDKK

Each binder was assayed against acetylcholine receptor (assay: SPR, receptor immobilized, peptide 10 uM).
In the case of B1, the Binding affinity (RU) is reported as 29 RU. With B2 the Binding affinity (RU) was 25 RU. In the case of B3, the Binding affinity (RU) is reported as 23 RU. For B4, the Binding affinity (RU) was 32 RU. In the case of B5, the Binding affinity (RU) is reported as 25 RU. B6 was tested, and the Binding affinity (RU) was 17 RU.

Each binder was assayed against acetylcholine receptor (assay: SPR, AchR immobilised on CM5 chip, peptide 10 uM).
Work on B7 yielded a Binding affinity (RU) of 22 RU. B8 showed a Binding affinity (RU) of 24 RU. With B9 the Binding affinity (RU) was 39 RU. For B10, the Binding affinity (RU) was 24 RU. Binder B11 has a Binding affinity (RU) of 24 RU. B12 gave a Binding affinity (RU) of 24 RU. B13 gave a Binding affinity (RU) of 34 RU. B14 showed a Binding affinity (RU) of 43 RU. B15 gave a Binding affinity (RU) of 43 RU. B16 showed a Binding affinity (RU) of 38 RU. In the case of B17, the Binding affinity (RU) is reported as 39 RU. With B18 the Binding affinity (RU) was 22 RU. B19 showed a Binding affinity (RU) of 43 RU. In the case of B20, the Binding affinity (RU) is reported as 41 RU. B21 was tested, and the Binding affinity (RU) was 37 RU. In the case of B22, the Binding affinity (RU) is reported as 29 RU. Binder B23 has a Binding affinity (RU) of 29 RU. Binder B24 has a Binding affinity (RU) of 35 RU. B25 gave a Binding affinity (RU) of 36 RU. In the case of B26, the Binding affinity (RU) is reported as 36 RU. For B27, the Binding affinity (RU) was 43 RU. For B28, the Binding affinity (RU) was 28 RU. Work on B29 yielded a Binding affinity (RU) of 39 RU. B30 gave a Binding affinity (RU) of 31 RU. In the case of B31, the Binding affinity (RU) is reported as 33 RU. Binder B32 has a Binding affinity (RU) of 31 RU. Binder B33 has a Binding affinity (RU) of 23 RU. B34 gave a Binding affinity (RU) of 36 RU. B35 showed a Binding affinity (RU) of 40 RU. B36 was tested, and the Binding affinity (RU) was 28 RU. With B37 the Binding affinity (RU) was 42 RU. Binder B38 has a Binding affinity (RU) of 37 RU. For B39, the Binding affinity (RU) was 27 RU. Binder B40 has a Binding affinity (RU) of 34 RU. For B41, the Binding affinity (RU) was 37 RU. For B42, the Binding affinity (RU) was 25 RU. B43 gave a Binding affinity (RU) of 34 RU. B44 showed a Binding affinity (RU) of 27 RU. Binder B45 has a Binding affinity (RU) of 25 RU. Binder B46 has a Binding affinity (RU) of 22 RU. In the case of B47, the Binding affinity (RU) is reported as 28 RU. B48 showed a Binding affinity (RU) of 26 RU. For B49, the Binding affinity (RU) was 34 RU. B50 gave a Binding affinity (RU) of 29 RU. Work on B51 yielded a Binding affinity (RU) of 42 RU. With B52 the Binding affinity (RU) was 122 RU. For B53, the Binding affinity (RU) was 43 RU. B54 was tested, and the Binding affinity (RU) was 33 RU. Work on B55 yielded a Binding affinity (RU) of 22 RU. With B56 the Binding affinity (RU) was 33 RU. Binder B57 has a Binding affinity (RU) of 33 RU. For B58, the Binding affinity (RU) was 42 RU. Binder B59 has a Binding affinity (RU) of 41 RU. B60 showed a Binding affinity (RU) of 29 RU. B61 gave a Binding affinity (RU) of 41 RU. With B62 the Binding affinity (RU) was 38 RU. With B63 the Binding affinity (RU) was 29 RU. B64 gave a Binding affinity (RU) of 40 RU. With B65 the Binding affinity (RU) was 41 RU. In the case of B66, the Binding affinity (RU) is reported as 31 RU. B67 showed a Binding affinity (RU) of 38 RU. For B68, the Binding affinity (RU) was 27 RU. With B69 the Binding affinity (RU) was 35 RU. Work on B70 yielded a Binding affinity (RU) of 40 RU. With B71 the Binding affinity (RU) was 26 RU. B72 was tested, and the Binding affinity (RU) was 43 RU. Work on B73 yielded a Binding affinity (RU) of 29 RU. For B74, the Binding affinity (RU) was 24 RU. Work on B75 yielded a Binding affinity (RU) of 25 RU. Work on B76 yielded a Binding affinity (RU) of 28 RU. B77 gave a Binding affinity (RU) of 32 RU. Work on B78 yielded a Binding affinity (RU) of 28 RU.
